The values that follow come from patent US20230190810A1 (FRED HUTCHINSON CANCER CENTER, published 2023).

For test [1], the target named is T1, purified extracellular domain of human CD33^FL with C-terminal His and Avi tags (human, UniProt P20138 18-259).
T1 construct: also called CD33^FL ectodomain; CD33^FL antigen; not shown: C-terminal His and Avi tags
The experiment in a line: SPR, Biacore T100, 25 C; 1H7 captured on anti-mouse IgG, purified CD33^FL ectodomain as analyte; target CD33^FL (full-length ectodomain). As to the method:
(§1) FIG. 9. SPR assessment of purified extracellular domains from CD33^FL or CD33^ΔE2 binding to captured 1H7. Black lines are data and gray lines are the model fits. SPR experiments were performed at 25° C. on a Biacore T100 (Cytiva) using a running buffer of 10 mM HEPES, pH 7.4, 150 mM NaCl, 3 mM EDTA, 0.05% surfactant P20 with 0.1 mg/mL bovine serum albumin. Rabbit anti-mouse IgG was amine coupled to 2 flow cells of a Series S CM5 chip (7300 RUs). 1H7 at 0.2 μg/mL was injected at 10 μL/min over 1 flow cell of immobilized anti-mouse IgG for either 2 mins or 5 mins to capture 94 or 163 RUs of antibody for the CD33^FL and CD33^ΔE2 binding experiments, respectively. Purified ectodomains for CD33^FL and CD33^ΔE2 (engineered with C-terminal His and Avi tags) were run as concentration series at 35 μL/min over both the captured antibody and anti-mouse IgG alone (reference) surfaces. CD33^FL was injected for 10 mins and allowed to dissociate for 15 mins. CD33^ΔE2 was injected for 7 mins and dissociated for 7 mins. Ectodomain concentrations (serial 2-fold dilutions starting at 75 nM for CD33^FL and 2 μM for CD33^ΔE2) were run in duplicate, randomized, and included a buffer blank every 4th injection. The CM5 chip was regenerated with 10 mM glycine, pH 1.7 for 3 minutes at 20 μL/min and 1H7 recaptured prior to each CD33 injection. Data was double referenced and analyzed in BiaEval 2.0.4.
Background: In SPR one partner is held on a chip, and binding of the other changes the refractive index at the surface.

The target in test [2] is T2, artificial CD33 with deletion of exons 3 and 4, lacking the C2-set domain (CD33^ΔE3-4), on cells (human, UniProt P20138 1-364).
T2 construct: it probably still carries the CD33 signal peptide (aa 1-17), which is not part of the protein on cells; also called CD33 V-set construct (exon 3 and 4 deleted)
T2 sequence (P20138 other isoform, or with tags, fused parts or gaps mutant limits assumed): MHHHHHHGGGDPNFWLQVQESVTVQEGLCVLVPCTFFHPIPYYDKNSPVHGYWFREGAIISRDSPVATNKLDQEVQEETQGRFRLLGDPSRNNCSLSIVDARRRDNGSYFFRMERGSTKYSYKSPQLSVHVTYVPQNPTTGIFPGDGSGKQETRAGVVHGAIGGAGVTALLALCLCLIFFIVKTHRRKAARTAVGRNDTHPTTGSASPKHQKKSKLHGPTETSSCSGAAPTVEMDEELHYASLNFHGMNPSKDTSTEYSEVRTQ
The experiment in a line: flow cytometry on engineered cells. In general terms: A flow cytometer gives signals particle by particle.

In test [3] the target is T3, purified extracellular domain of human CD33^ΔE2 with C-terminal His and Avi tags (human, UniProt P20138 18-259).
T3 construct: extracellular domain; also called CD33^ΔE2 ectodomain; not shown: C-terminal His and Avi tags
T3 sequence (P20138 140-259 limits assumed, stated change not applied): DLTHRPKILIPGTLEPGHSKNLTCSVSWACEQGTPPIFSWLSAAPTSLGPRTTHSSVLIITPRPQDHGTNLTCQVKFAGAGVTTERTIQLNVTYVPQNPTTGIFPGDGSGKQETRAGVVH
The experiment in a line: SPR (Carterra), antibody captured on a protein A/G lawn, CD33ΔE2 antigen in solution; column 'CD33ΔE2 kD (nM), 4 µg/mL' (purified antibody). An excerpt:
(§2) FIG. 8. A kinetic profile was established from purified anti-CD33 antibodies and hybridoma supernatants by use of surface plasmon resonance technology (SPR) from the Carterra instrument. SPR is a great way to estimate the kinetic rate constants of binding interactions, of which can fit to a 1:1 Langmuir binding model to determine the on-rate (Kₒₙ) and off-rate (Koff). Both of these rate parameters allow for the calculation of the dissociation rate constant (Kd), referred to as binding affinity. The antibody clones were captured as an array on a protein A/G lawn, which was immobilized to a HC30M chip. The first kinetic experiment used a CD33^FL antigen which started at a concentration of 2 μM preceding a 4-fold titration to 2 nM. Following 10 HBSTE buffer blanks, 6 injections from low to high concentrations were subsequently flowed over the array to assess kinetics of each clone printed to the array, 1-min baseline, 5-min association, 10-min dissociation. The chip was then regenerated with 0.85% phosphoric acid pH 1.7 for a fresh reprint of the same array of clones to the protein A/G lawn, in case any lingering antigen stayed bound to the array preventing an interaction with the 2nd antigen of interest, of which CD33^ΔE2 flowed over the array of antibodies. […]

Test [4] has as its target T3, purified extracellular domain of human …. The experiment in a line: SPR (Carterra), antibody captured on a protein A/G lawn, CD33ΔE2 antigen in solution; column 'CD33ΔE2 kD (nM), 1 µg/mL' (purified antibody).
Source text: as §2

The target of test [5] is T1, purified extracellular domain of human …. The experiment in a line: SPR (Carterra), antibody captured on a protein A/G lawn, CD33FL antigen in solution; column 'CD33FL kD (nM), 1 µg/mL' (purified antibody). An excerpt:
(§3) FIG. 8. A kinetic profile was established from purified anti-CD33 antibodies and hybridoma supernatants by use of surface plasmon resonance technology (SPR) from the Carterra instrument. SPR is a great way to estimate the kinetic rate constants of binding interactions, of which can fit to a 1:1 Langmuir binding model to determine the on-rate (Kₒₙ) and off-rate (Koff). Both of these rate parameters allow for the calculation of the dissociation rate constant (Kd), referred to as binding affinity. The antibody clones were captured as an array on a protein A/G lawn, which was immobilized to a HC30M chip. The first kinetic experiment used a CD33^FL antigen which started at a concentration of 2 μM preceding a 4-fold titration to 2 nM. Following 10 HBSTE buffer blanks, 6 injections from low to high concentrations were subsequently flowed over the array to assess kinetics of each clone printed to the array, 1-min baseline, 5-min association, 10-min dissociation. The chip was then regenerated with 0.85% phosphoric acid pH 1.7 for a fresh reprint of the same array of clones to the protein A/G lawn, in case any lingering antigen stayed bound to the array preventing an interaction with the 2nd antigen of interest, of which CD33^ΔE2 flowed over the array of antibodies. Carterra kinetic software was used to process the data to fit the raw data to kinetic curves for each concentration of antigen injected over the array.

For test [6], the target named is T3, purified extracellular domain of human …. The experiment in a line: SPR, Biacore T100, 25 C; 1H7 captured on anti-mouse IgG, purified CD33^ΔE2 ectodomain as analyte; target CD33^ΔE2 (lacking V-set domain). As to the method:
as §1

Test [7] deals with T1, purified extracellular domain of human …. Nature of the test: SPR (Carterra), antibody captured on a protein A/G lawn, CD33FL antigen in solution; column 'CD33FL kD (nM), 4 µg/mL' (purified antibody).
Source text: as §3

Test [8] deals with T4, human full-length CD33 (CD33^FL) on cells (human, UniProt P20138 18-364).
T4 construct: Used for engineered REH/ML-1 sublines overexpressing CD33^FL and for endogenous CD33 on parental AML cell lines; also called Siglec-3
T4 sequence (P20138 18-364): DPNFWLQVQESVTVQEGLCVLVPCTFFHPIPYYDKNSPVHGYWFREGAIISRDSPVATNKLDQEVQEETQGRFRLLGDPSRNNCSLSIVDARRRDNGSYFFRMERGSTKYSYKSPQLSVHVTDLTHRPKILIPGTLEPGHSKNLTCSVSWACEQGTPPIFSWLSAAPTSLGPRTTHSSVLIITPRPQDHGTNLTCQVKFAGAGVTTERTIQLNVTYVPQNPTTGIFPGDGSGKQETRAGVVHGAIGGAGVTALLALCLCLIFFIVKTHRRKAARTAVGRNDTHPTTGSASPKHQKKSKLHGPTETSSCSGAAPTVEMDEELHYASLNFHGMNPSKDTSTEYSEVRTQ
The experiment in a line: flow cytometry, murine antibody, control = secondary antibody only; ML-1 parental cells (endogenous CD33) and REH cells expressing CD33FL.

The target in test [9] is T4, human full-length CD33 (CD33^FL) on …. Nature of the test: flow cytometry, murine antibody, control = secondary antibody only; REH cells expressing CD33FL.
Test [10] addresses T1, purified extracellular domain of human …. Nature of the test: SPR (Biacore); column 'CD33FL Biacore kD (nM)'.
Test [11] addresses T3, purified extracellular domain of human …. The experiment in a line: SPR (Carterra), antibody or hybridoma supernatant captured on a protein A/G lawn, CD33ΔE2 antigen in solution.
Source text: as §2

Test [12] deals with T4, human full-length CD33 (CD33^FL) on …. Nature of the test: flow cytometry, murine antibody, control = secondary antibody only; REH cells expressing CD33FL. This is another data set of the same source.

T1 sequence (P20138 18-259): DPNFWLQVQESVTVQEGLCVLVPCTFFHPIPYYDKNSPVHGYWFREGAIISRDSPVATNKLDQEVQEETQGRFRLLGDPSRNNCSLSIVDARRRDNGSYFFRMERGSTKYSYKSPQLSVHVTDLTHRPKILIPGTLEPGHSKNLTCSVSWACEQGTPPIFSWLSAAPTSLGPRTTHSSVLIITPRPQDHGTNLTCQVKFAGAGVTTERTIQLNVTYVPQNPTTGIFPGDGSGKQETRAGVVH

B1: 1H7 antibody (murine CD33^PAN antibody, hybridoma clone and recombinant 1H7) (antibody, V domains shown)
VH: QVQLQQSGAELVKPGASVKISCKASGYAFSNYWMNWVKQRPGKGLEWIGQINPGDGDTNYNGKFKGKATLTADKSSSTAYMQLSSLTSEDSAVYFCAREDRDYFDYWGQGTTLTVSS
VL: DIQMTQTTSSLSASLGDRVTISCRASQDINYYLNWYQQKPDGTVKLLIYYSSRLHSGVPSRFSGSGSGTDFSLTISNLEQEDIATYFCQQDDALPYTFGGGTKLEIK
notes: Murine antibody (captured on anti-mouse IgG in the Biacore run); both are treated as one molecule; also called clone 1H7
A word on the Kd: it is the concentration at which binding is half-saturated. A high value points to weaker binding. In the case of B1, the Kd in test [1] was 5.35 nM; in test [3] it was 7.6 nM; in [4], 5.3 nM; in test [5], 0.674 nM; in [6], 280 nM; in [7], 4.2 nM. Moreover, the binding result in test [2] is listed as “no binding”.

B2: 9G2 antibody (murine CD33^PAN antibody) (antibody, V domains shown)
VH: EVKLVESEGGLVQPGSSMKLSCTASGFTFSDYYMSWVRQVPEKGLEWVASINYDGGSTYYLDSLKSRFIISRDNTKNILYLQMSSLKSEDTATYYCARDRGDGDYFDYWGQGTTLTVSS
VL: DIQMTQTTSSLSASLGDRVTISCKTSQDIYNYLNWYQQKPDGTVKLLIYYTSRLHSGVPSRFSGGGSGTDYSLTISNLEQEDIATYFCQQGDTLPWTFGGGTKLEIK
notes: Murine hybridoma antibody
Regarding B2, the binding result in test [8] was “binds”.

B3: 6H9 antibody (murine CD33^PAN antibody) (antibody, V domains shown)
VH: EVMLVESGGGLVKPGGSLKLSCAASGFTFSSYTMSWVRQTPEKRLEWVATISGDGGNTYYSDSVKGRFTISRDNAKNTLYLQMSSLRSEDTALYYCARQGTGTDYFDYWGQGTTLTVS
VL: DIQMTQTTSSLSASLGDRVTISCRASQDINIYLNWYQQKPDGTVKLLIYYTSRLHSGVPSRFSGSGSGTDYSLTISNLEQEDIATYFCQQGDTLPWTFGGGTKLEIK
notes: Murine hybridoma antibody
For B3, in [8], the binding result was “binds”.

B4: 2D5 antibody (murine CD33^PAN antibody) (antibody, V domains shown)
VH: QVQLQQSGAELVRPGASVTLSCKASGYTFTDYDMHWVKQTPVHGLEWIGAIDPETGGTAYNQNFKGKAILTVDKSSRIAYMELRSLTSEDSAVFYCTSDYDYFGVWGTGTTVTVSS
VL: DIVMTQSQKFMSTSVGDRVSVTCKASQNVGTNVVWYHKKPGQSPKGLIYSASDRYSGVPDRFTGSGSGTDFTLTINNVQSEDLAEYFCQQYNIYPYTFGGGTKLEIK
notes: Murine hybridoma antibody
Turning to B4, the binding result in test [9] is given as “binds”.

B5: 8F5 antibody (murine CD33^V-set antibody) (antibody, V domains shown)
VH: EVKLVESGGGLVQPGGSLKLSCAASGFTFSDFYMYWVRQTPEKRLEWVAFISNAGVTTYYPDTVEGRFTISRDNAKNTLYLQMSRLMSEDTAMYYCTKSDYDGAWFPYWGQGTLVTVS
VL: DIVMSQSPSSLPVSVGEKVTLSCKSSQSLLYSRNQYNFLAWYQQRPGQSPKLLIYWASTRESGVPDRFTGSGSGTDFTLTISSVKAEDLAVYYCQQYYSYPYTFGGGTKLEIK
notes: Murine hybridoma antibody
B5: the figures for the Kd in [10], in [5] and in [7] were 8 nM, 11 nM and 6.1 nM, respectively. Moreover, the binding result in [11] was “no binding”.

B6: 13E11 (antibody, V domains shown)
VH: KVQLQQSGAELVKPGASVKLSCKASGYTFTDYTLHWLKQRSGQGLEWIGWFYPTSGSINYNERFKDKATLTADKSSSTVYMELSRLTSVDSAVYFCARHKFGFDYWGQGTTLTVSS
VL: DIVLTQSPVSLAVSLGQRATISCKASHGVEYAGAHYMNWYQQKPGQPPKLLIYAASNLGSGIPPRFSGSGSGTDFTLNIHPVEEEDSATYYCQQSNEDPRTFGGGTKLEIK
notes: also called 13E11 antibody; murine CD33^C2-set-specific antibody, clone 13E11
On to B6, for which, in test [12], the binding result is “no binding”.

B7: 5D12 antibody (murine CD33^V-set antibody) (antibody, V domains shown)
VH: QVQLQQSGAEVVKPGASVKISCRASGYAFSNYWMNWVKQRPGKGLEWIGQIYPGNFNTDYNGQFKGKATLTVDKSSNTAYMQLSSLTSEDSAVYFCARFFDFGAYFTLDYWGQGTSVTVSS
VL: DIKMTQSPSSIYASLGERVTINCKASQDIKSYLSWYQQKPWKSPKTLIYYATTLADGVPSRFSGSGSGQDYSLTISSLESDDTATYYCLHHGESPWTFGEGTKLEIK
notes: Murine hybridoma antibody
As to B7, the values for the Kd in test [10], in test [5] and in test [7] were 0.122 nM, 2.3 nM and 1.1 nM, respectively. Further, the binding result in [11] is recorded as “no binding”.
